According to US20250163166A1 (REGENECORE BIOTECH, published 2025):
Positions count from the first letter of the chain named.

T1: human recombinant CD123 protein (human, UniProt P26951 19-300)
T1 construct: range 19-300
T1 sequence (looked up): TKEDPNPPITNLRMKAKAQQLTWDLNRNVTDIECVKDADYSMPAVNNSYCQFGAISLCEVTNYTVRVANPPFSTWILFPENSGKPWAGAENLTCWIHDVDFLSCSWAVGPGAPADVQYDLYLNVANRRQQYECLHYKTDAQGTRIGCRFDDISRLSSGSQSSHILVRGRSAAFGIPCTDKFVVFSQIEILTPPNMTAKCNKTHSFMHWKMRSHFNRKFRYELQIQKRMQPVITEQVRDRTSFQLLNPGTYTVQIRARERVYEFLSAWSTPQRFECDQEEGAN

B1: bispecific antibody BM#26 against CD33 and CD123 (bispecific antibody, human IgG1)
chain 1: QVQLVESGGGSVQAGGSLRLSCAASGYTYSSTCIGWFRQAPGKDREGVAFAYTGGGVTYADSVKGRFTISQDNAKNTVHLIMNSLKPEDTAMYYCAAKTRGGCWAAAAFYNYWGQGTQVTVSSEPKSCDKTHTCPPCPAPELLGGPSVFLFPPKPKDTLMISRTPEVTCVVVDVSHEDPEVKFNWYVDGVEVHNAKTKPREEQYNSTYRVVSVLTVLHQDWLNGKEYKCKVSNKALPAPIEKTISKAKGQPREPQVYTLPPSRKKLTKNQVSLTCLVKGFYPSDIAVEWESNGQPENNYKTTPPVLVSDGSFTLYSKLTVDKSRWQQGNVFSCSVMHEALHNHYTQKSLSLSPGK
chain 2: QVQLVESGGGSVQAGGSLKLSCAASRFIFSRCGMGWFRQAPGKERELVSTISGDGTTFYADSVKGRFTISQHNAATTLYLQMNSLKLEDTAVYYCAADCYNRKYWGQGTQVTVSSEPKSCDKTHTCPPCPAPELLGGPSVFLFPPKPKDTLMISRTPEVTCVVVDVSHEDPEVKFNWYVDGVEVHNAKTKPREEQYNSTYRVVSVLTVLHQDWLNGKEYKCKVSNKALPAPIEKTISKAKGQPREPQVYTLPPSRDELTKNQVSLTCLVEGFYPSDIAVEWESNGQPENNYKTTPPVLDSDGSFFLYSWLTVDKSRWQQGNVFSCSVMHEALHNHYTQESLSLSPGK
notes: VHH-Fc heterodimer
B2: bispecific antibody BM#36 against CD33 and CD123 (bispecific antibody, human IgG1)
chain 1: not shown
chain 2: B1 chain 2 with E270K, T294S, V297A, F305A, Y307V, W309K, E339K
notes: VHH-Fc heterodimer
B3: bispecific antibody BM#29 against CD33 and CD123 (bispecific antibody, human IgG1)
chain 1: B1 chain 1 with Q255R, K265E, V307D, T313F, Y315A
chain 2: B1 chain 2 with K260D, E270K, W309V
notes: VHH-Fc heterodimer; also called BM-RT2831-#29
B4: bispecific antibody BM#28 against CD33 and CD123 (bispecific antibody, human IgG1)
chain 1: B1 chain 1 with K265D, V307K, T313F
chain 2: B1 chain 2 with E270Y, W309D
notes: VHH-Fc heterodimer
B5: bispecific antibody BM#27 against CD33 and CD123 (bispecific antibody, human IgG1)
chain 1: B1 chain 1 with K265D
chain 2: B1 chain 2 with E270Y
notes: VHH-Fc heterodimer; also called BM-RT2831-#27
B6: bispecific antibody BM#32 against CD33 and CD123 (bispecific antibody, human IgG1)
chain 1: B1 chain 1 with Q255R, K264D, K265D, V307D, T313F, Y315A
chain 2: B1 chain 2 with K260D, E270Y, W309V, E339K
notes: VHH-Fc heterodimer; also called BM-RT2831-#32
B7: bispecific antibody BM#30 against CD33 and CD123 (bispecific antibody, human IgG1)
chain 1: B1 chain 1 with Q255R, K264D, V307D, T313F, Y315A
chain 2: B1 chain 2 with K260D, W309V, E339K
notes: VHH-Fc heterodimer; also called BM-RT2831-#30
B8: anti-CD123 single domain antibody (VHH)
VHH: QVQLVESGGGSVQAGGSLKLSCAASRFIFSRCGMGWFRQAPGKERELVSTISGDGTTFYADSVKGRFTISQHNAATTLYLQMNSLKLEDTAVYYCAADCYNRKYWGQGTQVTVSS
notes: Tested as crude extract from the pMECS clone and detected through an HA tag; also called second VHH

Each binder was assayed against T2, human FCγRIIIa receptor (human, UniProt P08637 17-208, limits assumed) (assay: BLI; Ratio against the hIgG (hIgG1) control, fits KD(hIgG)/KD(sample)).
T2 construct: Used in solution as the 'antigen' in BLI; also called FcγIIIa receptor
Protocol: (§1) (3) Preparation of antigen working solution: 200 nM antigen (FCγRIIIa) in SD buffer was first prepared at and then serially diluted in 2 folds to prepare a total of 5 concentration gradients, in addition to which a zero concentration was prepared.
(§2) (11) Data analysis: related constants, such as KD, Kon, Koff, X2, Full R2 and the like were calculated in Data Analysis software.
(§3) In the examples of the present application, the modified bispecific antibody was subjected to BLI test to determine the affinity of the modified bispecific antibody to human FCγRIIIa.

T2 sequence (P08637 17-208 limits assumed): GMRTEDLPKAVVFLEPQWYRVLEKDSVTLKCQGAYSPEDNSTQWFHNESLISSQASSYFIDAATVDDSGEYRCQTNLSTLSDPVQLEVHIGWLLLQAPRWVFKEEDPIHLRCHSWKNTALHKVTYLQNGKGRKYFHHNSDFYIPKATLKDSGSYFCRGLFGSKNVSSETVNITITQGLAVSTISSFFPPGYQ

Ratio	Binder
1.15	B1
1.38	B2
1.2	B3
1.45	B4
0.91	B5
1.17	B6
1.27	B7

Each binder was assayed against T2, human FCγRIIIa receptor (assay: BLI (Octet 96), antibody loaded on sensor, FCγRIIIa 200 nM and 2-fold dilutions in solution).
Protocol: as §1, §2, §3

Kd [nM]	Binder
76.9	B1
64.2	B2
73.9	B3
61.3	B4
96.9	B5
76	B6
69.6	B7

What follows are binders tested against T1, human recombinant CD123 protein (assay: ELISA of crude antibody extract on coated antigen, anti-HA detection; positive clone if OD450 is more than 5 times the control).
Protocol: 2. CD33 protein or CD123 protein was diluted into 100 mM NaHCO₃ at pH 8.3. An ELISA plate was coated with 100 μg CD33 protein at 4° C. overnight. The next day, […] BSA-Biotin protein was added to the ELISA plate.
3. 100 μL of crude antibody extract obtained in the above step was transferred to the ELISA plate into which the antigen was added, and incubated at room temperature for 1 h.

binding result	Binder
binds	B8
